Experimental data reported in article PMC9482650, “Quantitative fragmentomics allow affinity mapping of interactomes” (Nature Communications, 2022).

Assays:
Test in all cases: holdup assay
Design in all cases: key: below the threshold = too weak to quantify, mostly under pKd 3.1 to 4
Inadl_4, Q8NI35 = target: Inadl_4, Q8NI35
MAST1, Q9Y2H9 = target: MAST1, Q9Y2H9
SYNJ2BP, P57105 = target: T1, SYNJ2BP, P57105
T1 sequence (P57105 8-110, limits assumed, looked up): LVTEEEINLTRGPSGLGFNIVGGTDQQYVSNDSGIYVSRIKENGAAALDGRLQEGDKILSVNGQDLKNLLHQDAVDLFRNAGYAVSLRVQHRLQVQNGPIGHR

NOS1, P29475 = target: NOS1, P29475
Inadl_9, Q8NI35 = target: Inadl_9, Q8NI35
NHERF4_1, Q86UT5-2 = target: NHERF4_1, Q86UT5-2
ARHGEF12, Q9NZN5-2 = target: ARHGEF12, Q9NZN5-2
PCLO, Q9Y6V0 = target: T2, PCLO, Q9Y6V0
T2 sequence (Q9Y6V0 4491-4600, limits assumed, looked up): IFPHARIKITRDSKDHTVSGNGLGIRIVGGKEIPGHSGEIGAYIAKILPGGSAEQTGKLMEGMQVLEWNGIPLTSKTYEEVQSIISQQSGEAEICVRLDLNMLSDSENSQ

MAGI2_5, Q86UL8 = target: MAGI2_5, Q86UL8
NHERF2_2, Q15599 = target: NHERF2_2, Q15599
SIPA1L2, Q9P2F8 = target: T3, SIPA1L2, Q9P2F8
T3 sequence (Q9P2F8 945-1036, limits assumed, looked up): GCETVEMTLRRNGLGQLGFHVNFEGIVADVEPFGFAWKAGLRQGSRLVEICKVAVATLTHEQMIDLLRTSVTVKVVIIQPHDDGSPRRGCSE

TJP1_2, Q07157 = target: TJP1_2, Q07157
SNTG2, Q9NY99 = target: T4, SNTG2, Q9NY99
T4 sequence (Q9NY99 68-166, limits assumed, looked up): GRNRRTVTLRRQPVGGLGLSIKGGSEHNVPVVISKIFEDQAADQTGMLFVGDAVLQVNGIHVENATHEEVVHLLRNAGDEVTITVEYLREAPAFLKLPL

Inadl_3, Q8NI35 = target: Inadl_3, Q8NI35
PARD3_3, Q8TEW0 = target: PARD3_3, Q8TEW0
SNTA1, Q13424 = target: T5, SNTA1, Q13424
T5 sequence (Q13424 82-180, limits assumed, looked up): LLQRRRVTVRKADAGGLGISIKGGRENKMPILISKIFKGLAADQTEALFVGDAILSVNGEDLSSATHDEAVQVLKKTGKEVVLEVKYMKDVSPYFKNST

LNX2_3, Q8N448 = target: T6, LNX2_3, Q8N448
T6 sequence (Q8N448 463-564, limits assumed, looked up): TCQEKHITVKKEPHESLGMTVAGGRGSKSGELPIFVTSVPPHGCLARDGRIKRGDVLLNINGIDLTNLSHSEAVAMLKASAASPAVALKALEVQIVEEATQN

ARHGEF11, O15085 = target: T7, ARHGEF11, O15085
T7 sequence (O15085 42-136, limits assumed, looked up): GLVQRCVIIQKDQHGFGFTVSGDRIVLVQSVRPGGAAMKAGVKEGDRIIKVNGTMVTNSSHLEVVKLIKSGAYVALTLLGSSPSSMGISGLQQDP

SNTG1, Q9NSN8 = target: T8, SNTG1, Q9NSN8
T8 sequence (Q9NSN8 52-150, limits assumed, looked up): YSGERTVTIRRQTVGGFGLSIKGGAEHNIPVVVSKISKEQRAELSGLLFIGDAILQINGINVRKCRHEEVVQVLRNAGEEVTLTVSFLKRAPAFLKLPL

DLG2_2, Q15700 = target: DLG2_2, Q15700
HTRA3, P83110 = target: T9, HTRA3, P83110
T9 sequence (P83110 354-453, limits assumed, looked up): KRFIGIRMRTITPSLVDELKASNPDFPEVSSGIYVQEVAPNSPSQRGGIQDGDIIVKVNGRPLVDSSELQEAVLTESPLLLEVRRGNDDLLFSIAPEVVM

IL16_1, Q14005 = target: IL16_1, Q14005
PARD3B_1, Q8TEW8 = target: T10, PARD3B_1, Q8TEW8
T10 sequence (Q8TEW8 196-299, limits assumed, looked up): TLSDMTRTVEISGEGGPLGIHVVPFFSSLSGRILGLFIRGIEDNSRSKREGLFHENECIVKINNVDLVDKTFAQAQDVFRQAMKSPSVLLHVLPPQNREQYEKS

HTRA4, P83105 = target: T11, HTRA4, P83105
T11 sequence (P83105 378-476, limits assumed, looked up): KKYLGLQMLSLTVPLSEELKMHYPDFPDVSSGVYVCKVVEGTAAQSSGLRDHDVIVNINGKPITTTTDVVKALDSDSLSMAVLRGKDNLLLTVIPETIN

MPP7, Q5T2T1 = target: T12, MPP7, Q5T2T1
T12 sequence (Q5T2T1 134-230, limits assumed, looked up): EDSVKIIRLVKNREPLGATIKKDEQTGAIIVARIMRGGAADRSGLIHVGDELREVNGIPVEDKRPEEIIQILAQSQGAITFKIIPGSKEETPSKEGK

SCRIB_2, Q14160 = target: SCRIB_2, Q14160
[1] = plain residues with an end cap or a label only (N-terminal biotin on a linker: ado-ado)
[2] = plain residues with an end cap or a label only (N-terminal biotin on a linker: (peg)3)

ARHGEF12, Q9NZN5-2, sequence (Q9NZN5 other isoform, or with tags, fused parts or gaps): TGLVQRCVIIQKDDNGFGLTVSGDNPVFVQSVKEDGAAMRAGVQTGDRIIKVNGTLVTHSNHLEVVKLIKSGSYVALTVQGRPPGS
MAST1, Q9Y2H9, sequence (Q9Y2H9 962-1065): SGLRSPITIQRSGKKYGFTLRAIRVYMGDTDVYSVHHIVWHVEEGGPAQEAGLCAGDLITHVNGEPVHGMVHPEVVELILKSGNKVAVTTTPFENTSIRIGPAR
NHERF2_2, Q15599, sequence (Q15599 142-238): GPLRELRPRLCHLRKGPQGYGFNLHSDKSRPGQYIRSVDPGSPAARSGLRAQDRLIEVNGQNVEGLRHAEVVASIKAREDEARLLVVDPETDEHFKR
NOS1, P29475, sequence (P29475 9-101): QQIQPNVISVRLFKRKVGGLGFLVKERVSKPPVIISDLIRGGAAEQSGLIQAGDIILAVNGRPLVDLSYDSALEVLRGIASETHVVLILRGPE
IL16_1, Q14005, sequence (Q14005 210-306): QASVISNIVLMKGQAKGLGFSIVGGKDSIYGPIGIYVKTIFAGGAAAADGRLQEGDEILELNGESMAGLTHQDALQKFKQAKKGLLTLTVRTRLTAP
NHERF4_1, Q86UT5-2, sequence (Q86UT5 other isoform, or with tags, fused parts or gaps): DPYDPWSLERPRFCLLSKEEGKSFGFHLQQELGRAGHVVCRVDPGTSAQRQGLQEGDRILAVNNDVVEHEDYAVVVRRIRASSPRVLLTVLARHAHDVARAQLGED
PARD3_3, Q8TEW0, sequence (Q8TEW0 582-685): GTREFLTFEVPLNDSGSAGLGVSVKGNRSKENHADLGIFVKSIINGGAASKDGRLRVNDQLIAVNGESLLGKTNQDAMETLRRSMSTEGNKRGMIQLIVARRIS
DLG2_2, Q15700, sequence (Q15700 189-283): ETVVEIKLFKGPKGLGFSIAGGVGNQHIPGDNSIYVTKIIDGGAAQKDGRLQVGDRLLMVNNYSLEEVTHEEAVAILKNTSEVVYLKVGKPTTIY
MAGI2_5, Q86UL8, sequence (Q86UL8 915-1017): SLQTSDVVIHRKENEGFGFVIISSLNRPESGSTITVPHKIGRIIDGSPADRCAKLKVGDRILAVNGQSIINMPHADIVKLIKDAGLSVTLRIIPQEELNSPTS
TJP1_2, Q07157, sequence (Q07157 181-274): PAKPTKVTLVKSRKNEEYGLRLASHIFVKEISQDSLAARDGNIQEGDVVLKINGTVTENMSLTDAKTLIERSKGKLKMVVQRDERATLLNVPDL
Inadl_4, Q8NI35, sequence (Q8NI35 547-651): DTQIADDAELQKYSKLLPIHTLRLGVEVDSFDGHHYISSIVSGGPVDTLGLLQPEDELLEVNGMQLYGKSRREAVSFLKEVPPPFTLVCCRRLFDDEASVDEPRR
SCRIB_2, Q14160, sequence (Q14160 857-960): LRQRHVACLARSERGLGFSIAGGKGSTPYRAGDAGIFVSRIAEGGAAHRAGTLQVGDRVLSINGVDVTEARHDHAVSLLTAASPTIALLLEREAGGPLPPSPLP
Inadl_9, Q8NI35, sequence (Q8NI35 1530-1615): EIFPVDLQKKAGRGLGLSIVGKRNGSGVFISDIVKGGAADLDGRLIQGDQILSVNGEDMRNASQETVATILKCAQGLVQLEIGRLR
Inadl_3, Q8NI35, sequence (Q8NI35 359-469): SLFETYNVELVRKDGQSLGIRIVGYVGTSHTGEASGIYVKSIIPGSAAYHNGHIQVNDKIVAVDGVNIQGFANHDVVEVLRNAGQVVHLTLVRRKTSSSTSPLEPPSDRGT

YLEPVLSSEL [ATP2A2, P16615;P16615-3]
pKd (Inadl_4, Q8NI35; [1]): below the threshold
pKd (MAST1, Q9Y2H9; [1]): 4.83
pKd (SYNJ2BP, P57105; [1]): 4.24
pKd (NOS1, P29475; [1]): below the threshold
pKd (Inadl_9, Q8NI35; [1]): below the threshold
pKd (NHERF4_1, Q86UT5-2; [1]): 4.39
pKd (ARHGEF12, Q9NZN5-2; [1]): 5.38
pKd (PCLO, Q9Y6V0; [1]): below the threshold
pKd (MAGI2_5, Q86UL8; [1]): 4.82
pKd (NHERF2_2, Q15599; [1]): 4.46
pKd (SIPA1L2, Q9P2F8; [1]): below the threshold
pKd (TJP1_2, Q07157; [1]): below the threshold
pKd (SNTG2, Q9NY99; [1]): below the threshold
pKd (Inadl_3, Q8NI35; [1]): below the threshold
pKd (PARD3_3, Q8TEW0; [1]): below the threshold
pKd (SNTA1, Q13424; [1]): below the threshold
pKd (LNX2_3, Q8N448; [1]): below the threshold
pKd (ARHGEF11, O15085; [1]): 4.55
pKd (SNTG1, Q9NSN8; [1]): below the threshold
pKd (DLG2_2, Q15700; [1]): below the threshold
pKd (HTRA3, P83110; [1]): below the threshold
pKd (IL16_1, Q14005; [1]): below the threshold
pKd (PARD3B_1, Q8TEW8; [1]): 4.04
pKd (HTRA4, P83105; [1]): below the threshold
pKd (MPP7, Q5T2T1; [1]): below the threshold

NLNSSEGVPDLLV [SARS-CoV-E, P59637]
pKd (Inadl_4, Q8NI35; [2]): below the threshold
pKd (MAST1, Q9Y2H9; [2]): 3.79
pKd (SYNJ2BP, P57105; [2]): 3.99
pKd (SCRIB_2, Q14160; [2]): below the threshold
pKd (NOS1, P29475; [2]): below the threshold
pKd (Inadl_9, Q8NI35; [2]): below the threshold
pKd (NHERF4_1, Q86UT5-2; [2]): below the threshold
pKd (ARHGEF12, Q9NZN5-2; [2]): below the threshold
pKd (PCLO, Q9Y6V0; [2]): below the threshold
pKd (MAGI2_5, Q86UL8; [2]): below the threshold
pKd (NHERF2_2, Q15599; [2]): below the threshold
pKd (SIPA1L2, Q9P2F8; [2]): below the threshold
pKd (TJP1_2, Q07157; [2]): 5.18
pKd (SNTG2, Q9NY99; [2]): below the threshold
pKd (Inadl_3, Q8NI35; [2]): below the threshold
pKd (PARD3_3, Q8TEW0; [2]): 4.27
pKd (SNTA1, Q13424; [2]): below the threshold
pKd (LNX2_3, Q8N448; [2]): below the threshold
pKd (ARHGEF11, O15085; [2]): below the threshold
pKd (SNTG1, Q9NSN8; [2]): below the threshold
pKd (DLG2_2, Q15700; [2]): below the threshold
pKd (HTRA3, P83110; [2]): below the threshold
pKd (IL16_1, Q14005; [2]): below the threshold
pKd (PARD3B_1, Q8TEW8; [2]): below the threshold
pKd (HTRA4, P83105; [2]): below the threshold
pKd (MPP7, Q5T2T1; [2]): below the threshold

QKNRKAQEDL [CES3, Q6UWW8]
pKd (Inadl_4, Q8NI35; [1]): below the threshold
pKd (MAST1, Q9Y2H9; [1]): below the threshold
pKd (SYNJ2BP, P57105; [1]): below the threshold
pKd (SCRIB_2, Q14160; [1]): below the threshold
pKd (NOS1, P29475; [1]): below the threshold
pKd (Inadl_9, Q8NI35; [1]): below the threshold
pKd (NHERF4_1, Q86UT5-2; [1]): below the threshold
pKd (ARHGEF12, Q9NZN5-2; [1]): below the threshold
pKd (PCLO, Q9Y6V0; [1]): below the threshold
pKd (MAGI2_5, Q86UL8; [1]): below the threshold
pKd (NHERF2_2, Q15599; [1]): below the threshold
pKd (SIPA1L2, Q9P2F8; [1]): below the threshold
pKd (TJP1_2, Q07157; [1]): below the threshold
pKd (SNTG2, Q9NY99; [1]): below the threshold
pKd (Inadl_3, Q8NI35; [1]): below the threshold
pKd (PARD3_3, Q8TEW0; [1]): below the threshold
pKd (SNTA1, Q13424; [1]): below the threshold
pKd (LNX2_3, Q8N448; [1]): below the threshold
pKd (ARHGEF11, O15085; [1]): below the threshold
pKd (SNTG1, Q9NSN8; [1]): below the threshold
pKd (DLG2_2, Q15700; [1]): below the threshold
pKd (HTRA3, P83110; [1]): below the threshold
pKd (IL16_1, Q14005; [1]): below the threshold
pKd (PARD3B_1, Q8TEW8; [1]): below the threshold
pKd (HTRA4, P83105; [1]): below the threshold
pKd (MPP7, Q5T2T1; [1]): 3.61

PKRSFIESNV [TANC1, Q9C0D5]
pKd (Inadl_4, Q8NI35; [1]): below the threshold
pKd (MAST1, Q9Y2H9; [1]): 4.7
pKd (SYNJ2BP, P57105; [1]): 5.28
pKd (SCRIB_2, Q14160; [1]): 4.88
pKd (NOS1, P29475; [1]): below the threshold
pKd (Inadl_9, Q8NI35; [1]): below the threshold
pKd (NHERF4_1, Q86UT5-2; [1]): below the threshold
pKd (ARHGEF12, Q9NZN5-2; [1]): 3.47
pKd (PCLO, Q9Y6V0; [1]): below the threshold
pKd (MAGI2_5, Q86UL8; [1]): 4.41
pKd (NHERF2_2, Q15599; [1]): below the threshold
pKd (SIPA1L2, Q9P2F8; [1]): below the threshold
pKd (TJP1_2, Q07157; [1]): below the threshold
pKd (SNTG2, Q9NY99; [1]): 4.71
pKd (Inadl_3, Q8NI35; [1]): 3.56
pKd (PARD3_3, Q8TEW0; [1]): below the threshold
pKd (SNTA1, Q13424; [1]): 4.77
pKd (LNX2_3, Q8N448; [1]): below the threshold
pKd (ARHGEF11, O15085; [1]): 3.55
pKd (SNTG1, Q9NSN8; [1]): 4.95
pKd (DLG2_2, Q15700; [1]): 4.72
pKd (HTRA3, P83110; [1]): below the threshold
pKd (IL16_1, Q14005; [1]): 4.83
pKd (PARD3B_1, Q8TEW8; [1]): below the threshold
pKd (HTRA4, P83105; [1]): 3.92
pKd (MPP7, Q5T2T1; [1]): below the threshold
